Test: label from the status in PepcDB records
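Further: failed if final PepcDB status was selected cloned or expressed and not failed if soluble or beyond.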

Sequence	protein production
MAENVGSDSSEFESISSSQKSYLKNCPFAGHEALPTKSTDSDNTEVLGNQISPAVVKTPILSFSSPTSLDSINDDVFRTPPENASLSSAAESEPRVGVSEIKLQGGSNLTTPFSMAETTLVSSSPSLPAENVRVSESNLKSSSSTAKTTPVSASPSVNARVSESNLNSSSSTTPVSVSPSEKVRVFETTPVSASPSEKVRVFETKCHSDSGDSVPLSSSPPSVAADDVRVPAKHLDSDSSPPTAIGRTMVLVKQRISASDNSASSSASEGTKVSKTENSGEVLPFKEIIEALLRNSGEKLNERDDKVSYVEILKQCGLKFPK	failed
KGVVTIEQIVDTLPDRGRSCWHLGAVWALSQFQENELFLGMYPEEHFIEKPVKEAMARFRKNLEAIVSVIAERNKKKQLPYYYLSPDRIPNSVAI	failed
MDKHNEEHIYVAIDLKSFYASVECRERGKDALTTNLVVADPTRTEKTICLAVSPALKAYGIPGRARLFEVVQRVKEVNKLRLSKLMASGHAAGTVERRKKYVTEIDIAENDITESTMAGFDYASYNANLLDAHPEYELTYIVAPPRMALYMDYSTRIYNIYLKYIAPEDISVYSIDEVFMDVTHYLRTYHMTARELASKMIDDVLKDTGITATCGIGTNLYLCKIAMDIMAKHAMPDERGVRIAELNENSYRRKLWDHRPITDFWRVGAGYAKKLEAAGMYTMGDVARCSTGGSNDFYNEEKLYKMFGINAELLIDHAWGYEPVTIADIKAYRPQTNSISSGQVLQEPYDYEKTKLIVREMTDLLVLDLVDKRLVTDQIVLTIGYDIANLSNKADSCLGNNYDHAVNNKGRDSIGGKKGTHRDYTGEITIDRYGRKVPKHAHGTANLGRYTSSTRIIMDAVMELYDRIIDPSLLTRRITVVANRVCDESKVQESEQFEQLDLFTDYQARAKEKKKEDEALSKERKLQEAMISVKKKYGKNAMLKGMNLEEGATTISRNNQIGGHKA	failed
MVVSVLMPTYNHERFIEQAILSFIQQQVDFDIELLIGDDCSSDNTSFIARIYAEKYPNKIHLFQYSVNRGLMHNYKYLLNQAKGKYIAILESDDIWLDPFKLHKQVEIIEKTPNCGLVFSNWIVIDADSKEVTRSQRTLKTIGYSDLLKSNMVAAVTVLFSRNMFDLYCDIDEYILRNFKTLDYPVWLSISAHSNIIYLDDYTAGYRCLSTSISNSNSYQRSMAFNQSIDAIVQYVVSKYGKGELTIKELENASKLRYLTQAFQFKKFSQAFSIAWTFHATNIKSFIIKVLPFIWLCKNRKLIGQRLK	failed
MSSTSPNLQKAIDLASKAAQEDKAGNYEEALQLYQHAVQYFLHVVKYEAQGDKAKQSIRAKCTEYLDRAEKLKEYLKNKEKKAQKPVKEGQPSPADEKGNDSDG	not failed
MNATHEALAIRARPRPASAPSAVLTLAWRAMLKIKHVPFQLFDVTVTPIMFTLLFTFIFGGALAGSPRQYVQYLVPGVLVQTVLFITVYTGVGLNSDIRKGLYDRFRSLPMWQPAPLLGALAGDVFRYSVAGGVILVVGFILGFRPQGGAPGVLAAMALVLVFSFALSWLWIVVGMLVRTPESVMTTSFVFLMPLTFASDIFVGLGTMPGWLQGVVRHNPVTHLANASRDLMHGRPAGADVSWTLLASLVIVAAVAPLAMRLYRKER	failed
MAKAFEEQRRSPDLEALPFEDRIGLLVDREAAERDTRRLTTRLKIAALRQTACVEDVDLRTPRGIDRAVFAKLVEGRWIDRHENLLVTGATGLGKSWLACALGHKACRDNRSVLYHRVPRLFEALALARGDGRYARLLKSLGRAQLLILDDWGLSVLTAAERRDLLEILEDRHGRASTIVTSQLPWTPGMEPLGTPRSPTPFSIASSTTPTASSSPEKACENAAPKPSPLTANQNTDSISHRPLEHHHHHH	failed
MTSDGATSTSAAAAAAAAAAARRKPSWRERENNRRRERRRRAVAAKIYTGLRAQGDYNLPKHCDNNEVLKALCVEAGWVVEEDGTTYRKPLPGEIAGTSSRVTPYSSQNQSPLSSAFQSPIPSYQVSPSSSSFPSPSRGEPNNNMSSTFFPFLRNGGIPSSLPSLRISNSCPVTPPVSSPTSKNPKPLPNWESIAKQSMAIAKQSMASFNYPFYAVSAPASPTHRHQFHTPATIPECDESDSSTVDSGHWISFQKFAQQQPFSASMVPTSPTFNLVKPAPQQMSPNTAAFQEIGQSSEFKFENSQVKPWEGERIHDVGMEDLELTLGNGKARG	failed
MYLLDTTSTAAISIYALLLTAYRSMQVLYARPIDGPAVAAEPVETRPLPAVDVIVPSFNEDPGILSACLASIADQDYPGELRVYVVDDGSRNREAIVRVRAFYSRDPRFSFILLPENVGKRKAQIAAIGQSSGDLVLNVDSDSTIAFDVVSKLASKMRDPEVGAVMGQLTASNSGDTWLTKLIDMEYWLACNEERAAQSRFGAVMCCCGPCAMYRRSALASLLDQYETQLFRGKPSDFGEDRHLTILMLKAGFRTEYVPDAIVATVVPDTLKPYLRQQLRWARSTFRDTFLALPLLRGLSPFLAFDAVGQNIGQLLLALSVVTGLAHLIMTATVPWWTILIIACMTIIRCSVVALHARQLRFLGFVLHTPINLFLILPLKAYALCTLSNSDWLSRYSAPEVPVSGGKQTPIQTSGRVTPDCTCSGE	failed
MAFELSPSDLEPLLQGACFFGSGGGGTMISARHLAANFRKGDYYPTDKVRVVDVDEATDGDCVMVAYMGAPDAINQVQWPNGPVEAALAARQRLESQGRKLAYVVAPESGALGFVVASLVAAKLGLAVVDADGAGRAVPSLPMLTYAAAGVPPTPAFLAGESGLCVELGVRMPPPDGQRREDISTVVEQMLRPILTNPQFGQFGGLAMWMMSPAQLGGALPVRGTLSRALKLGRALQDGKVKTAEAMLDFLRRELDIKGKLLFGPATLASSEVSTAGGFDLGKVVLEDGERRCTVLYQNESLLAWDSALSHPLATAPDAISYFVEGEGQHVFSNGDLSGNDHGLDPSVRGRKAAVIALPAAAPLSEGLILQSFADELAQLGYLGPYAPVDAGREGARLEHHHHHH	not failed
MSLLIRELETNDLDNFPEIDDSFIVNARLMLSLSKVNRRIEYTVEDVPSYEKSYLQNDNEELVYNEYINKPNQIIYIALLHNQIIGFIVLKKNWNNYAYIEDITVDKKYRTLGVGKRLIAQAKQWAKEGNMPGIMLETQNNNVAACKFYEKCGFVIGGFDFLVYKGLNMTSDEVAIYWYLHFDS	failed
MFVQSALHQLKVAVDTSIQMLDQYTEIDLKIAPIQSKRSLFEMYAHLSLICHADLLILNGSTEKELHTFYKEQTPETIAQMQKTMIQGYDLLSKTFLSYSNEQLAEMKTAYWGISYSRFEWLLEIVAHFYHHRGQIHILLCEHMKDPNIPLFQ	not failed
MKPKSMKEKLVKDMMSILNLRIKMIDVNGLLKELDDALDKVVAKKEPESFLKPIISPIEDYQKSVRQIQAQFTDAPKFNEEGAYPQFLSCGLLEIKGKNGASMEFCLPKVYPFPPKSLYIEHEKDGQFLREMLMRLLSSAPLVQLEVILVDALSLGGIFNLARRLLHKDNDFIYQQRILTESKEIEEALKHLYEYLKVNLQEKLAGYKDFAHYNEEKKDRLPLKALFLSGVDALSQNALYYLEKIMRFGSKNGVLSFVNLESEKNNKSTEDLKRYAECFKDRTSFERLKYLNIEVINDHGIQSKHMKDFADKIKAYYEKKKAVKRELKDLQKDEKFWTESSQFKVSVPVGWDINHKEVCFEIGNEQNHTLICGRSGSGKSNFLHVLIQNLAFYYAPNEVQLFLLDYKEGVEFNAYTDPNILEHARLVSVASSVGYGMSFLNWLCKEMQERANLFKQFNVKDLSDYRKHGEIPRLIVVIDEFQVLFSDNKSTKAVEGHLNTLLKKGRSYGVHLILATQTMRGTDINRSIMAQIANRIALSMDAEDSNSILGDDAACELVRPEGIFNNNGGHQKHHTKMSIPKAPDDFKPFIKKIHRDFNQRNLVPVEHKIYNGEKPLEMPNTLKANEMRLHLGKEADYEQKDLMVGFENSESHLLVVSQDLSARIALMKLFAQNFKTANKELLFYNAEKRLARELDELKKHHITPMQGPLGSVLDTAMNPNSVLVIDNLNEAKELHDKIGVEKLRSFLEKATDNEQYCIIFAHDLKQIQANYDLSKLKELLNNHFKQRLAFRCNGENLSAIKKDLPLLTNELNALFVELSKDSHTEFRPFSL	failed
